Test results as given in the supplement of paper PMC9112550, “Optimization of the antimicrobial peptide Bac7 by deep mutational scanning” (BMC Biology, 2022).

system: Escherichia coli TOP10; assay: shrunken log2 fold change of peptide-encoding DNA abundance (4.5 h post-induction vs induction); higher = less antimicrobial activity (less host growth inhibition); conditions: time post-induction: 4.5 h; library: site-saturation at positions 5, 18, 19, 20
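Note: peptides expressed intracellularly from a pBAD plasmid library in pooled LB shake-flask culture, induced with 0.3% L-arabinose, DNA abundance read by NGS, three biological replicates, DESeq2 with apeglm shrinkage.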

First: RRIRRRPPRLPRPRPRPSDLPRP
Second: RRIRMRPPRLPRPRPRPSQEPRP
The “shrunken log2 fold change” value of the first is lower: 0.0119 for the first, 0.226 for the second.

RRIRSRPPRLPRPRPRPYDEPRP and RRIRNRPPRLPRPRPRPYDYPRP are within 0.2 log units of each other in “shrunken log2 fold change” value: 0.0261 for the first, -0.129 for the second.

Going from RRIRQRPPRLPRPRPRPPPCPRP to RRIRMRPPRLPRPRPRPWCRPRP, the “shrunken log2 fold change” value falls from 0.393 to 0.0521.

Compared with RRIRERPPRLPRPRPRPYKDPRP, RRIRTRPPRLPRPRPRPRMAPRP is higher in “shrunken log2 fold change” value: -0.157 for the first, 0.288 for the second.

RRIRRRPPRLPRPRPRPDIMPRP and RRIRLRPPRLPRPRPRPIPTPRP are within 0.2 log units of each other in “shrunken log2 fold change” value: -0.146 for the first, -0.105 for the second.

RRIRNRPPRLPRPRPRPEVLPRP and RRIRLRPPRLPRPRPRPNKRPRP are within 0.2 log units of each other in “shrunken log2 fold change” value: -0.212 for the first, -0.121 for the second.

First: RRIRRRPPRLPRPRPRPGLVPRP
Second: RRIRPRPPRLPRPRPRPLIEPRP
The “shrunken log2 fold change” value of the first is higher: 0.279 for the first, -0.0879 for the second.

First: RRIRGRPPRLPRPRPRPFWAPRP
Second: RRIRIRPPRLPRPRPRPSGQPRP
The “shrunken log2 fold change” value of the first is higher: 0.325 for the first, -0.0453 for the second.

Going from RRIRARPPRLPRPRPRPRVLPRP to RRIRGRPPRLPRPRPRPDAHPRP, the “shrunken log2 fold change” value rises from 0.189 to 0.421.

RRIRDRPPRLPRPRPRPRVLPRP and RRIRPRPPRLPRPRPRPNESPRP are within 0.2 log units of each other in “shrunken log2 fold change” value: 0.173 for the first, -0.00438 for the second.

RRIRDRPPRLPRPRPRPNGFPRP and RRIRWRPPRLPRPRPRPIHGPRP are within 0.2 log units of each other in “shrunken log2 fold change” value: -0.0113 for the first, 0.0966 for the second.

RRIRWRPPRLPRPRPRPTDFPRP and RRIRCRPPRLPRPRPRPVPFPRP are within 0.2 log units of each other in “shrunken log2 fold change” value: -0.149 for the first, -0.132 for the second.

First: RRIRARPPRLPRPRPRPNPWPRP
Second: RRIRGRPPRLPRPRPRPVDEPRP
The “shrunken log2 fold change” value of the first is lower: 0.222 for the first, 1.05 for the second.

First: RRIRIRPPRLPRPRPRPNEGPRP
Second: RRIRDRPPRLPRPRPRPAWYPRP
The “shrunken log2 fold change” value of the first is lower: -0.45 for the first, -0.0946 for the second.

Going from RRIRCRPPRLPRPRPRPLISPRP to RRIRYRPPRLPRPRPRPFLVPRP, the “shrunken log2 fold change” value falls from -0.3 to -1.03.

Compared with RRIRRRPPRLPRPRPRPYVGPRP, RRIRCRPPRLPRPRPRPKQYPRP is lower in “shrunken log2 fold change” value: -0.00208 for the first, -0.629 for the second.

First: RRIRPRPPRLPRPRPRPYPTPRP
Second: RRIRSRPPRLPRPRPRPPGCPRP
The “shrunken log2 fold change” value of the first is lower: -0.11 for the first, 0.676 for the second.

First: RRIRTRPPRLPRPRPRPQAHPRP
Second: RRIRVRPPRLPRPRPRPMVMPRP
The “shrunken log2 fold change” value of the first is lower: -0.452 for the first, -0.0371 for the second.

Compared with RRIRPRPPRLPRPRPRPDTYPRP, RRIRLRPPRLPRPRPRPAKCPRP is higher in “shrunken log2 fold change” value: -0.623 for the first, -0.0859 for the second.

Going from RRIRPRPPRLPRPRPRPFDMPRP to RRIRYRPPRLPRPRPRPYSHPRP, the “shrunken log2 fold change” value falls from 0.08 to -0.958.

Compared with RRIRIRPPRLPRPRPRPGMWPRP, RRIRCRPPRLPRPRPRPINGPRP is lower in “shrunken log2 fold change” value: 0.0422 for the first, -0.282 for the second.

RRIRIRPPRLPRPRPRPFHAPRP and RRIRVRPPRLPRPRPRPPFNPRP are within 0.2 log units of each other in “shrunken log2 fold change” value: -0.388 for the first, -0.303 for the second.

Going from RRIRQRPPRLPRPRPRPMLIPRP to RRIRTRPPRLPRPRPRPARMPRP, the “shrunken log2 fold change” value rises from -0.221 to 0.127.

Compared with RRIRIRPPRLPRPRPRPDIYPRP, RRIRVRPPRLPRPRPRPYAGPRP is higher in “shrunken log2 fold change” value: -0.357 for the first, 0.0438 for the second.

Going from RRIRLRPPRLPRPRPRPWRHPRP to RRIRTRPPRLPRPRPRPAVRPRP, the “shrunken log2 fold change” value rises from -0.0415 to 0.203.

RRIRERPPRLPRPRPRPNIDPRP and RRIRSRPPRLPRPRPRPDQKPRP are within 0.2 log units of each other in “shrunken log2 fold change” value: -0.0761 for the first, -0.00231 for the second.

Compared with RRIRIRPPRLPRPRPRPGYRPRP, RRIRERPPRLPRPRPRPICAPRP is higher in “shrunken log2 fold change” value: -0.217 for the first, 0.0742 for the second.

First: RRIRSRPPRLPRPRPRPCIGPRP
Second: RRIRHRPPRLPRPRPRPHTTPRP
The “shrunken log2 fold change” value of the first is higher: -0.18 for the first, -0.491 for the second.

Compared with RRIRSRPPRLPRPRPRPHGSPRP, RRIRGRPPRLPRPRPRPDKCPRP is higher in “shrunken log2 fold change” value: -0.0567 for the first, 0.627 for the second.

RRIRARPPRLPRPRPRPDMMPRP and RRIRYRPPRLPRPRPRPRGKPRP are within 0.2 log units of each other in “shrunken log2 fold change” value: 0.139 for the first, 0.158 for the second.

First: RRIRKRPPRLPRPRPRPRKAPRP
Second: RRIRIRPPRLPRPRPRPHEVPRP
The “shrunken log2 fold change” value of the first is higher: 0.384 for the first, -0.0624 for the second.

First: RRIRGRPPRLPRPRPRPPWDPRP
Second: RRIRSRPPRLPRPRPRPPWIPRP
The “shrunken log2 fold change” value of the first is higher: 0.832 for the first, -0.0981 for the second.

RRIRNRPPRLPRPRPRPVMSPRP and RRIRHRPPRLPRPRPRPESKPRP are within 0.2 log units of each other in “shrunken log2 fold change” value: 0.0178 for the first, -0.135 for the second.

RRIRMRPPRLPRPRPRPVFVPRP and RRIRQRPPRLPRPRPRPWPMPRP are within 0.2 log units of each other in “shrunken log2 fold change” value: 0.0672 for the first, -0.0342 for the second.

RRIRKRPPRLPRPRPRPVTFPRP and RRIRGRPPRLPRPRPRPWFQPRP are within 0.2 log units of each other in “shrunken log2 fold change” value: -0.126 for the first, 0.0619 for the second.

Compared with RRIRFRPPRLPRPRPRPAGMPRP, RRIRMRPPRLPRPRPRPREEPRP is higher in “shrunken log2 fold change” value: -0.124 for the first, 1.41 for the second.

First: RRIRSRPPRLPRPRPRPGSPPRP
Second: RRIRNRPPRLPRPRPRPGDMPRP
The “shrunken log2 fold change” value of the first is higher: 0.106 for the first, -0.21 for the second.

Compared with RRIRDRPPRLPRPRPRPHWFPRP, RRIRPRPPRLPRPRPRPLFYPRP is lower in “shrunken log2 fold change” value: 0.0318 for the first, -0.383 for the second.

First: RRIRPRPPRLPRPRPRPINMPRP
Second: RRIRYRPPRLPRPRPRPSDKPRP
The “shrunken log2 fold change” value of the first is lower: -0.503 for the first, -0.194 for the second.

First: RRIRSRPPRLPRPRPRPPWGPRP
Second: RRIRVRPPRLPRPRPRPMAKPRP
The “shrunken log2 fold change” value of the first is higher: 0.317 for the first, 0.0605 for the second.

Going from RRIRIRPPRLPRPRPRPYYKPRP to RRIRNRPPRLPRPRPRPHSSPRP, the “shrunken log2 fold change” value rises from -1.01 to -0.00587.

Going from RRIRCRPPRLPRPRPRPLGEPRP to RRIRMRPPRLPRPRPRPASSPRP, the “shrunken log2 fold change” value falls from 0.277 to -0.00458.

First: RRIRSRPPRLPRPRPRPSHPPRP
Second: RRIRYRPPRLPRPRPRPSSMPRP
The “shrunken log2 fold change” value of the first is higher: -0.277 for the first, -0.999 for the second.

Going from RRIRDRPPRLPRPRPRPDDWPRP to RRIRDRPPRLPRPRPRPHRLPRP, the “shrunken log2 fold change” value falls from 1.08 to 0.033.

RRIRNRPPRLPRPRPRPNACPRP and RRIRFRPPRLPRPRPRPHAYPRP are within 0.2 log units of each other in “shrunken log2 fold change” value: -0.0239 for the first, -0.118 for the second.

Going from RRIRGRPPRLPRPRPRPYCCPRP to RRIRCRPPRLPRPRPRPPGSPRP, the “shrunken log2 fold change” value rises from -0.0424 to 0.379.

Going from RRIRNRPPRLPRPRPRPRETPRP to RRIRLRPPRLPRPRPRPYWNPRP, the “shrunken log2 fold change” value falls from -0.0277 to -1.03.

Compared with RRIRIRPPRLPRPRPRPRINPRP, RRIRHRPPRLPRPRPRPPSVPRP is higher in “shrunken log2 fold change” value: -0.482 for the first, 0.241 for the second.

Going from RRIRCRPPRLPRPRPRPHKCPRP to RRIRMRPPRLPRPRPRPIQRPRP, the “shrunken log2 fold change” value rises from -0.721 to 0.544.

Compared with RRIRHRPPRLPRPRPRPGACPRP, RRIRNRPPRLPRPRPRPFIQPRP is lower in “shrunken log2 fold change” value: 0.203 for the first, -0.737 for the second.

First: RRIRRRPPRLPRPRPRPRHEPRP
Second: RRIRKRPPRLPRPRPRPMDEPRP
The “shrunken log2 fold change” value of the first is lower: 0.148 for the first, 0.966 for the second.

Going from RRIRKRPPRLPRPRPRPISYPRP to RRIRIRPPRLPRPRPRPHDYPRP, the “shrunken log2 fold change” value falls from -0.0078 to -0.262.

RRIRQRPPRLPRPRPRPARSPRP and RRIRWRPPRLPRPRPRPMANPRP are within 0.2 log units of each other in “shrunken log2 fold change” value: 0.0407 for the first, 0.21 for the second.

RRIRQRPPRLPRPRPRPSWGPRP and RRIRYRPPRLPRPRPRPPDRPRP are within 0.2 log units of each other in “shrunken log2 fold change” value: -0.0627 for the first, 0.118 for the second.

For RRIRRRPPRLPRPRPRPQLYPRP, the “shrunken log2 fold change” value was 0.101.
